From the DeepSol protein solubility set come the findings set out here.

The nature of this data set: soluble on expression in E. coli; label from the status in PepcDB or PDB records.
Turning to “MSLTSKPYIMGVDIGTSSTKAVLFNQRGEVIFRQATHYELITDETGKAEESPTEIFDAVLTSIQAVMKNINTEELAGISFSSAMHSLIMVGSNGELLTECITWADGRSSETLEKVKRDNYLFQLYEATGTPIHPMSPFAKICWLKEEKPTLFKRTEKFVDIKSYILYRLFGVWVMDESLASGTGLYNIMEHDWEFEAMEIVKLTPDFLPKVVPETYQLAGVKKEYAELMGIPENLPFIIGGSDGALANIGIQATGQNDVTITVGTSGAVRKLTDQFQIDSRGRTFCYGAGDGYFIAGGAVNNGGKVVEWGLQQFGSEAEISRRDFASFIAKIEEVPPGAAGLLFQPYLLGERAPFWTNDIRGGFVGLTINHTKAHFIRAILEGVAFNLAEVYEAVSAPDDIIYVTGGISAHDAWCKLLADILNREIRVPHTIEGSSLGAAIIGMRSLGILKDLNLKHTLPIKAVYHPSENVLKYAELRLIFKQVTTQLMSSYSQLNSWQKKFDINSEGHHHHHH”, the “soluble on expression in E. coli” value is “soluble”.
With “GMASVLSAATATDQGPVRENNQDACLADGILYAVADGFGARGHHASATALKTLSAGFAAAPDRDGLLEAVQQANLRVFELLGDEPTVSGTTLTAVAVFEPGQGGPLVVNIGDSPLYRIRDGHMEQLTDDHSVAGELVRMGEITRHEARWHPQRHLLTRALGIGPHIGPDVFGIDCGPGDRLLISSDGLFAAADEALIVDAATSPDPQVAVRRLVEVANDAGGSDNTTVVVIDLG”, the “soluble on expression in E. coli” value is “soluble”.
The entry for “MSLCEKEINNNNNNNELTEKSKEEIEKDEIEYLEYLKYRKEIIDSHCHIHEDVEHLQESCDLPFKKILLMGTTVEDWDKINQLADKINDDNKIIRCFGIHPWFVYNYLPPTELIGKIKEGDGSNDSIIISIDETWRIKMKELLLKYPNSIVGEIGIDKVTKVRLNGFNKNDQESQMRVFRDQIEIANELDRLVSLHCVQLQGQLLTFFQSLDIDKFPPAIALHTFGGKPATVDQFCKMASGKGDKFYFGLSFINLTFSKVDKLIQAIPDDRLLLESDQNSPTQVDQSLFKLIQKISISKNWTIQKTIEQTTLNTLNFLSKQIKKEGHHHHHH” is “soluble”.
In the case of “NYMGNPWTEYMAKYDIEEVHGSGIRVDLGEDAEVAGTQYRLPSGKCPVFGKGIIIENSNTTFLTPVATGNQYLKDGGFAFPPTEPLMSPMTLDEMRHFYKDNKYVKNLDELTLCSRHAGNMIPDNDKNSNYKYPAVYDDKDKKCHILYIAAQENNGPRYCNKDESKRNSMFCFRPAKDISFQNYTYLSKNVVDNWEKVCPRKNLQNAKFGLWVDGNCEDIPHVNEFPAIDLFECNKLVFELSASDQPKQYEQHLTDYEKIKEGFKNKNASMIKSAFLPTGAFKADRYKSHGKGYNWGNYNTETQKCEIFNVKPTCLINNSSYIATTALSHPIEVE”, the “soluble on expression in E. coli” value is given as “soluble”.
On to “MAIEIPNMIQIGSTGRNSGKTTLAEALIKQYQEVYPIYGLKIITISGQRGVCQRGTKGCGICTSITAGYELVEEQETIGNKDTMKLLAAGCQKVFLLKVFQENLAEAIQQFLKAVPAQALIICESNSLRNVVQPGLFLMMNNQNRQKESAKKVIDKADFCLLSAEIPKKLRIYYQGEQLQVSLKRGNKKECVH”, for which the “soluble on expression in E. coli” value is given as “not soluble”.
“MGSSHHHHHHSSGLVPRGSHMRLAGILLHVTSLPSPYGIGDLGKEAYRFLDFLKECGFSLWQVLPLNPTSLEAGNSPYSSNSLFAGNYVLIDPEELLEEDLIKERDLKRFPLGEALYEVVYEYKKELLEKAFKNFRRFELLEDFLKEHSYWLRDYALYMAIKEEEGKEWYEWDEELKRREKEALKRVLNKLKGRFYFHVFVQFVFFKQWEKLRRYARERGISIVGDLPMYPSYSSADVWTNPELFKLDGDLKPLFVAGVPPDFFSKTGQLWGNPVYNWEEHEKEGFRWWIRRVLHNLKLFDFLRLDHFRGFEAYWEVPYGEETAVNGRWVKAPGKTLFKKLLSYFPKNPFIAEDLGFITDEVRYLRETFKIPGSRVIEFAFYDKESEHLPHNVEENNVYYTSTHDLPPIRGWFENLGEESRKRLFEYLGREIKEEKVNEELIRLVLISRAKFAIIQMQDLLNLGNEARMNYPGRPFGNWRWRIKEDYTQKKEFIKKLLGIYGREV”: the “soluble on expression in E. coli” value is on record as “soluble”.
As to “MIDHQHLRLFQFCDSQFPTGAFSHSFGLETYIQRETVHDTETFIKWLHLFINEQLTYSDGIAMRIVYHALINNDKDKILDINQKLFVQNLPKETRIGAKQMGTRMVKLALDLYDSEWIQWYYNQMKNNKIKLHPAVCFTMLGHFLGVDVESIIDYYLYQNISSLTQNAVRAIPLGQTAGQQVVTEMIAHIEKTRNHILELDEIDFGMTAPGLELNQMEHENVHVRIFISLEHHHHHH”, the “soluble on expression in E. coli” value is “not soluble”.
The entry for “MKEPLDLSKYSVRTDLAVEAHQMLQERQEEQQQGIQGVIVKEREEEGIIITKVTIDEVASESMGKKPGNYLTLEVQGIRQQDTELQQKVERIFAKEFSYFLEEVGVTKEASCLIVGLGNWNVTPDALGPIVVENVLVTRHLFQLQPESVEEGFRPVSAIRPGVMGITGIETSDVIYGIIEKTKPDFVIAIDALAARSIERVNSTIQISDTGIHPGSGVGNKRKELSKETLGIPVIAIGVPTVVDAVSITSDTIDFILKHFGREMKEGNKPSRSLLPAGFTFGEKKKLTEEDMPDEKSRNMFLGAVGTLEDEEKRKLIYEVLSPLGHNLMVTPKEVDAFIEDMANVIASGLNAALHHQIDQDNTGAYTH” is “not soluble”.
The entry for “MGSDKIHHHHHHMPEAAFTHERRCSSLCAFVSSSQSPTTNAETIREARSSRCDKTSMTPSFKELKSRFGLDEINTTDAYIIEALIIMAAISLMMSRVIVDELRSLEARQREVEAAADADESASRLPRRRCSLAVERHAHLIQLYLMVELGYELPDLDELLLWASRNPNPHRDRLREQVERGEFGFGRH” is “not soluble”; for “MGSDKIHHHHHHMYSTTQHQSPETVVTVSSLGKAYKIYNSKRDRAKQLIFQNRRKYFQEHWALRNISFDLRRGESIGIVGKNGSGKSTLLQLICGTLKPSQGEVIVNGKIAALLELGSGFNPEFSGRENVYLNASILGLNKQEIQERLDDILAFADIGNYVDQPVRTYSSGMVVRLAFSVIAHVDADILIVDEALSVGDAYFTQKCMRFIQRFQEKGSLLFVSHDANAILSLCNRALLINQGELKRVGKPKEVIEDYTRDLQKRNLADQNNKINRPERMKEQENTAHMKRQSGVQYTQKNIENEIMKWSDYRCKLINSSNLANTIVITRFDETLTTRETYGGEKAEITNVELENIETNKTIQNIKGGEIVRLRLKFEARTAIGRPIIGFILKNSKGLTILGDNTNNSISENNDFNAFEGDKVTTDFVFTVPMLQQGEYMISVSVADGCITEHEILHWMNDALLLRSQCTSIAAGLAGVPMHSISIEIEK” it is “not soluble”.
Turning to “GHMPGRAPGSTLARVGSIPAGDDVLDPDEPTYDLPRVAELLGVPVSKVAQQLREGHLVAVRRAGGVVIPQVFFTNSGQVVKSLPGLLTILHDGGYRDTEIMRWLFTPDPSLTITRDGSRDAVSNARPVDALHAHQAREVVRRAQAMAY”, the “soluble on expression in E. coli” value is recorded as “soluble”.
The entry for “MAGETDLQKILRESNDQFTAQMFSEVVKANPGQNVVLSAFSVLPPLGQLALASVGESHDELLRALALPNDNVTKDVFADLNRGVRAVKGVDLKMASKIYVAKGLELNDDFAAVSRDVFGSEVQNVDFVKSVEAAGAINKWVEDQTNNRIKNLVDPDALDETTRSVLVNAIYFKGSWKDKFVKERTMDRDFHVSKDKTIKVPTMIGKKDVRYADVPELDAKMIEMSYEGDQASMIIILPNQVDGITALEQKLKDPKALSRAEERLYNTEVEITLPKFKIETTTDLKEVLSNMNIKKLFTPGAARLENLLKTKESLTVDAAIQKAFIEVNEEGAEAAAANAFGIVPKSLILYPEVHIDRPFYFELKIDGIPMFNGKVIEP” is “soluble”; for “RPDKVKLALDKTSYRAGDTLKVTITPPHPGKGLLLVESDKPLYVQAIDANPSTTLEIPVTADWERHDVYVTALVFRGGSASNNTTPARAVGEAYVPMQRKERRVAVGLVVPKQVRPAQSLPVTVSVPELAGKQAHVTISAVDAGILNITGF” it is “not soluble”; for “MSLCGISGLVQLEGVADTSAMRRSVETMVKALAHRGPDDSGVAGDGSAVFGMARLAIRGCHDGRQPMVDAETGVMMVCNGEIDNHAELRGWLAERGRAVEHATDVAVIPGLYLELGDGFVERLVGAFALAVWDPRRGRLLLARDRAGERPLFYACRDGRVSFASQAAALVAGSPEPYPADEAAVQAFLKAGYFEAPASPFAGMRKVLPGERIAIDVKGVERSRYWRLNFTRGPARKNPLDEFDAVFREAVRRQSEVEVDFGAFLSGGVDSSLVTAVMRSVHPDRKLKAFGLRFSESSYDEGVFAERVAESLGVDYTPIWVRPEDFPETLADLVRQSGEPLADPAWVPTALLARRASDEVRVALVGEGADELFGGYPTYFGARLAERYSRLPGGLRALIRKAVEAWPVSDKKVTVSFLLKRFVQGDELDFLARHVLWTSSIPPALLRRLGVTPPETPHVAGPQETMLDRLQQHDLETSLAEGLLTKADRASMRSALELRAPFLDKDVIEFAATLPERERVQGLETKVFLKRVALRYLPKDIVYRKKRGLSVPLSAWLRGPLHDWAEARISSPRLEELGINRAAALELLREHERRSADHARALWTLIVVSEWLEWKAGMEAHEGHHHHHH” it is “soluble”.
“MSEGSGDQSQQRPWASPRQQPIKGIVQPRVLPPFGKPTRHTNKLDYIMTTVLKEAGKHKHVWPFQKPVDAVALCIPLYHERVARPMDLKTIENRLKSTYYTCAQECIDDIETVFQNCYTFNGKEDDVTIMAQNVHEVIKKSLEQAPREEHDMDVYWGKNKKKPAKSDGGSKSSSSKKNDARGPSEAPSEAGSEVSSVTTASAAAPTVSESASVAAKPERKVAGKKTGKRKAESEDDEKPEPLRAKREVAVVKKEVHQPLLPSMKPCLKLLNDFSTKKYQEFAWPFNEPVDAEQLGLHDYHKIIKEPMDLKSMKAKMESGAYKEPSDFEHDVRLMLRNCFLYNPVGDPVHSFGLRFQEVFDRRWAELGDSSSRASSVAPQSAPIAPTPKVAKSSAPKEPKESRKEHKKETTFEASGAKSEDLMQINNALSMIREREEKLKAELAAAQAIKDKLTSVKNRREDNPNEPFPEKLINETRALCTTQVGQNASSSSASSAALRNGRSKKAASARLYGYEFDSDDEDNKMALTYEEKRNLSNLINNLPNNQLNTIISIIQRRERSALMQQQLDDSEVELDFESLGDMCLREMGAFIKTIPTLNGNGDDEKPKTSSNPTSSGATGSKGSSSLESKNGKKKKNFNMSESSDDETSNSRKRRKRESSESQSSSSSDDDSDDEDRPSIPRKSGQPPSTSREWNQSSAPPPRMGGMGGQPPMSRVPASSSTSVSAIGKNNAAASSNSYRYRCFFVRKLNLKISNKKKWKSKKNSTNLVFRSSKTCTSTSTNIIKTSGSTETTVKTKENGRNQQRRLRLDHQRKANPGMVKTSRPGFRGCGWRQSEPAKKKTKAVSRCQTKWK”: the “soluble on expression in E. coli” value is on record as “not soluble”.
The entry for “MAHHHHHHMRRGGTVVFQRHRVSGGISRANEMSAFARLRGGQQKTETDWVPTLLLSGETPPPIARPAETAAFFLASFDPFVFSYCMFDFPTILHHAGELSEHELLDYPGSMLMSPRSLFLQPTAHLRFGSERQQRMAVVLQSLLDRHDESERSPVPCARALGVQCPLFVPFLRGVCLCVETQHPFAPQAAYVFEELLASGFVSSTLYLDGTYVDRNRTLAQIVQLAAREFGSESALFTGLLLDEEHASPPETIAVGRLVAQTLAAADRRRLDWALKTRGAVRQRLVPQHGWTLGPSPSLLSTAQQ” is “soluble”.
